These results are taken from US20220411531A1 (SUMGEN MAB BEIJING BIOTECH, published 2022).

The test addresses T1, AXL on the surfaces of human tumour cells (A549, MDA-MB-231, 786-O) (human, UniProt P30530 27-894).
T1 construct: Endogenous AXL on human tumour cell lines; The tie to the cell-line protein rests on this general definition only; also called cell surface antigen
T1 sequence: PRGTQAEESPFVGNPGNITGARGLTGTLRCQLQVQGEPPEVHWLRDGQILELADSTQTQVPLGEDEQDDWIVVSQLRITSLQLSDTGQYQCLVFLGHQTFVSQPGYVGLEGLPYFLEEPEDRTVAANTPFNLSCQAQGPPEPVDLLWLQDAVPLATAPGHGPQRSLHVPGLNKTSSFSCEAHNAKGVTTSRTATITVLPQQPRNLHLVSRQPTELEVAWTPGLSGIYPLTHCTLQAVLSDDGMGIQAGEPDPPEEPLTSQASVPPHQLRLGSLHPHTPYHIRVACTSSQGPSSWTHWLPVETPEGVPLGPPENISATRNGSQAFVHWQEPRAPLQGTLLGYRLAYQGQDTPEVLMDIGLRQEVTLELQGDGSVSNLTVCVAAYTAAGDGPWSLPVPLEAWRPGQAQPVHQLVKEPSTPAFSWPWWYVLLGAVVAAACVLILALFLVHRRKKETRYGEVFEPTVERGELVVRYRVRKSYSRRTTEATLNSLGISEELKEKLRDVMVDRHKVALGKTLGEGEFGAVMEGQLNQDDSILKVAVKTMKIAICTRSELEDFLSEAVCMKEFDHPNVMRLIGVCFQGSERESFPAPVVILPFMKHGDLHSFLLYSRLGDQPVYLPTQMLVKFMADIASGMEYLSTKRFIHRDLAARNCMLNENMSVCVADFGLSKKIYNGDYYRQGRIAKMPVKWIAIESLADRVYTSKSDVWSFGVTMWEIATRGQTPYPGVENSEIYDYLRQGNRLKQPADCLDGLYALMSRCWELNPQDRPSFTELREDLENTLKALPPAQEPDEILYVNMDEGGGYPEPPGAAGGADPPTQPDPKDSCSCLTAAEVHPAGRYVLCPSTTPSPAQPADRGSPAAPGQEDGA
As to the kind of experiment: flow cytometry on MDA-MB-231 cells (second experiment, FIG. 9); MDA-MB-231 cells; second experiment, FIG. 9. The procedure: Cells in a logarithmic growth phase were collected; the cell density was regulated to 5×10⁶ cells/mL; and pre-cooling was performed on ice. The antibodies 6G12M11, 6G12M21, 6G12M31, and 6G12M41 were diluted to 20 μg/ml with pre-cooled normal saline containing 2% FBS. 100 μl of cells were taken, and an equal volume of each of the foregoing diluted antibodies was added to the cells to react for 30 minutes at 4° C. in the dark. After the completion of reaction, the cells were washed twice with pre-cooled physiological saline containing 2% FBS (6000 rpm, 45 s). The secondary antibody PE Mouse Anti-Human IgG (BD Pharmingen) was diluted at 1:5 with pre-cooled physiological saline containing 2% FBS, and 100 μL of the secondary antibody was taken for resuspending the cells, with a reaction conducted for 30 minutes at 4° C. in the dark. After the reaction, the cells were washed twice with pre-cooled physiological saline containing 2% FBS (6000 rpm, 45 s). The cells were resuspended by using 400 μl of 1% paraformaldehyde. The binding of antibodies to cell surface antigens was analyzed by means of a flow cytometer (BD Calibur).
For orientation: In flow cytometry, cells or beads pass a laser one at a time.

By EC50 is commonly meant the concentration giving half of the maximal effect.

B1: antibody 6G12M21 (antibody, human IgG1, kappa, V domains shown)
VH: QVQLVQSGPGLVKPSQSLSLTCSVTGFSISSGYYWNWIRQFPGQKLEWMGYRSYDGSNNYNPSLKNRISITRDTSKNQFFLKLNSVTSEDTATYYCARGWLLHYTMDYWGQGTTVTVSS
VL: DIVMTQSPSSVSVTLGQSASISCRSSRSLLHSNGFTYLYWYLQKPGQSPQLLIYQMSNLASGVPDRFSGSGSGTDFTLKISRVEAEDVGVYYCGQNLELPLTFGGGTKLEIKR
B1: the concentration giving a half-maximal response (EC50) was found to be 0.64 µg/mL.
